Source: patent CN111234012A

Target: HBV病毒 (HepAD38细胞上清制备的HBV病毒液)
Assay: cell-based or functional assay

Substance: 乙肝免疫球蛋白 (HBIG) (antibody)
- HBV neutralisation on HepG2-NTCP cells, HBeAg in supernatant (IC50): 15 µg/mL
